# Data as given in the DeepSol protein solubility set.
# Assay: soluble on expression in E. coli; label from the status in PepcDB or PDB records
row,Sequence,soluble on expression in E. coli
1,MSLFGIEVEEEASQIIHILLLQYISKSYSTYSLRSNQGYNPQTLDNNQQIYNSQLSNGNQQSEITCPYCHSTQVTAGKKGFGVGKAIVGGLLLGPVGLLGGLIGSKNIEFVYNCITLSASNNTNSAQWLREQSNNAKNIVNRYLDNDFAEALVAGSALVAMADGVIEYSERERLINYFKTSQEMKHIDTNMVLSKFDCYTQKLQRDFMMGKQNYEGHHHHHH,not soluble
2,MIQGVIQKIAGPAVIAKGMLGARMYDICKVGEEGLVGEIIRLDGDTAFVQVYEDTSGLKVGEPVVSTGLPLAVELGPGMLNGIYDGIQRPLERIREKTGIYITRGVVVHALDREKKWAWTPMVKPGDEVRGGMVLGTVPEFGFTHKILVPPDVRGRVKEVKPAGEYTVEKPVVVLEDGTNLKMYHTWPVRRPRPVQRKLDPNTPFLTGMRILDVLFPVAMGGTAAIPGPFGSGKTVTQQSLAKWSNADVVVYVACGDRGNEMTDVLVEFPELTDPKTGGPLMRRTVLIANTSNMPVAAREASIYVGVTIAEYFRDQGFSVALMADSTSRWAEALREISSRLEEMPAEEGYPPYLAARLAAFYERAGKVITLGGEEGAVTIVGAVSPPGGDMSEPVTQSTLRIVGAFWRLDASLAFRRHFPAINWNGSYSLFTSALDPWYRENVAEDYPELRDAISELLQREAGLQEIVQLVGPDALQDAERLVIEVGRIIREDFLQQNAYHEVDAYCSMKKAYGIMKMILAFYKEAEAAIKRGVSIDEILQLPVLERIGRARYVSEEEFPAYFEEAMKEIQGAFKALA,soluble
3,GAKSIYEFQVNAADGKPYDLSQHKGHPLLIYNVASRCGYTKGGYETATTLYNKYKGQGFTVLAFPCNQFAGQEPGTALEVKEFACTRFKADFPIMAKIDVNGSKAHPLYEFMKATIPGLFGTKAIKWNFTSFLIDRHGVPVERFSPGASVEDIEKKLLPLLGGARI,soluble
4,TMNNEMSDPQIEEFYTIVKELEKFDTFTNFLDVHQPELAIVFGRTKRRVDELTSALISKGYKAEGLHGDITQAKRLEVLKKFKNDQINILVATDVAARGLDISGVSHVYNFDIPQDTESYTHRIGRTGRAGKEGIAVTFVNPIEMDYIRQIEDANGRKMSALRPPHRKEVLQAREDDIKEKVENWMSKESESRLKRISTELLNEYNDVDLVAALLQELVEANDEVEVQLTFEKPLSRKGRNGKPSGSR,not soluble
5,MGSDKIHHHHHHMENALLVGLSRQVVLERQMDVVANNLANLNTNGFKAERSVFQEFLNTGAHEDNFARPDRRVSFVQDRATYHDLSTGALQETKNPLDVAIDGKGFLVVQTPQGERFTRDGSLTINAQGQLVNGSGFPVLGTGGPIVIQPTDKELSISPDGRVSVVEGTSIIDSLRGKLRVVTFDRPQSLIKQGGNLFAATSDQGTPDTKSMVRQGYVEKSNVNSVLEMTRMIDVTRTYTQISAMLQQESELRKTAIEKLAEVPA,not soluble
6,MGSDKIHHHHHHMPARIQPTARQVRLGAELRKLRDAAGLTSRQAAALLGTNPAQMSQIEAGNAGVSGERVRKLGVQYASADMELVDALVEMATDRTRGWWEEYRDVLPPVFQDLAELEHHATFMRVVGTVHVPGLLQTQEYARAVFAYVVPELPVDELDLRVRHRMRRKLVLSERTVPYEAVIHESVLRTRVADRRVAVAQLDELLSQSERPNVSLRVIPFGVDGFAGAGAMMLYAGGRVPALDTVQRDAPYGSVFLDASAQLLAMRTLFRRVESAALPPAKSRDYIHRLTKEL,not soluble
7,MQTFEIKEEFLVDGKPTKLISGAIHYFRMTPAQWEDSLYNLKALGANTIETYIPWNLHEPVEGVYDFEGMKDIVAFVSLAQELGLMVILRPSVYICAEWEFGGLPAWLLKEHVRLRSTDPRFIAKVRTYFSVLLPKLVPLQVTHGGPVIMMQVENEYGSYGMEKEYLRQTKQVMEEFGIDVPLFTSDGAWEEVLDVGTLIEEDVFVTGNFGSHSKENATVMKAFMAKHDKKWPIMCMEYWDGWFNRWGEPIIKRDGQDLANEVKDMLALGSLNLYMFHGGTNFGFYNGCSARGVLDLPQVTSYDYDALLTEAGEPTEKYFHVQRAIKEVCPEVWQAEPRRKTFGSLGTFPVQNSVSLLAVKDQMMTAQETMYPITMEEAESGYGYMLYSVNLKNYHHENKLKVVEASDRLHLFADGSLQTIQYQENLREEVMIKGTPEKEWIELDVLVENLGRVNYGFKLNGPTQVKGIRGGIMQDIHFHQGYRQYALTLSADQLKKIDYTAGKNPAQPSFYQAEFTLTDLADTFIDCRSYGKGVVIVNGINLGRYWQRGPIHSLYCPKEFLKKGTNEIVIFETEGIEINELIFCGQPIVKKLLTNDFSEIGSNIHNHIDS,not soluble
8,MSEQAPAPKRGRRFKEQTPVQRALGLLVHREHSKKELNRKLQARGIEPEAAQAAVERLAGEGWQDDVRFAASVVRNRASSGYGPLHIRAELGTHGLDSDAVSAAMATFEGDWTENALDLIRRRFGEDGPVDLAQRRKAADLLARRGFDGNSIRLATRFDLED,soluble
9,MGSSHHHHHHGKTIFVIVPTNEEQVAFLEALAKQDELNFDWQNPPTEPGQPVVILIPSDMVEWFLEMLKAKGIPFTVYVEEGGSENLYFQGGGGGGRPIVANRARHPALIVDIPFAALAWQCVQFLAVVVAHSLMRQMMLASVIRFTAVFLGIRRCRGAFVVAPLFVLQPLLQHLQQLITHPLTCLQGGIQWQLHALVEHLVHLQHLPSPRVQLSHVTKKRRAPVRKVVCGRIIHVHRTLLLLKQLRLLGVPGTQRAESSEHGGEPLTAVLVQLDKSIASRSGDNGDGGGRCR,not soluble
10,MNWLDICSLDEINPLGSRVVAGPKGDIAIFRAADDQVFALDDRCPHKGGPLSQGLIYGKRVACPLHNWQIELESGEAVAPDQGCAHRHPVRVENGRVLLGLDSVALCA,not soluble
11,PADLSGTWTLLSSDNFEGYMLALGIDFATRKIAKLLKPQKVIEQNGDSFTIHTNSSLRNYFVKFKVGEEFDEDNRGLDNRKCKSLVIWDNDRLTCIQKGEKKNRGWTHWIEGDKLHLEMFCEGQVCKQTFQRA,soluble
12,MAGRVKWVTDIEKSVLINNFEKRGWIQVTENEDWNFYWMSVQTIRNVFSVETGYRLSDDQIVNHFPNHYELTRKDLMVKNIKRYRKELEKEGSPLAEKDENGKYLYLDFVPVTYMLPADYNLFVEEFRKSPSSTWIMKPCGKAQGKGIFLINKLSQIKKWSRDSKTSSFVSQSTKEAYVISVYINNPLLIGGRKFDLRLYVLVSTYRPLRCYMYKLGFCRFCTVKYTPSTSELDNMFVHLTNVAIQKHGEDYNHIHGGKWTVNNLRLYLESTRGREVTSKLFDEIHWIIVQSLKAVAPVMNNDKHCFECYGYDIIIDDKLKPWLIEVNASPSLTSSTANDRILKYNLINDTLNIAVPNGEIPDCKWNKSPPKEVLGNYEILYDEELAQGDGAERELRNRPGQPVGPRAGRSRDSGRSVLTTWK,not soluble
13,MDYEILFSDETMNYADAGTYCQSRGMALVSSAMRDSTMVKAILAFTEVKGHDYWVGADNLQDGAYNFLWNDGVSLPTDSDLWSPNEPSNPQSWQLCVQIWSKYNLLDDVGCGGARRVICEKELDD,soluble
14,MGSDKIHHHHHHMDYPQQHIKPYNEDGKKTEQVERMFDNIAHAYDKLNHTLSLGIDRSWRRKAIAWLRPFRPQHIMDVATGTGDFAILACRELNPDELIGTDISEGMMNVGREKVKKEGLSDKISFAREDCTSLSFADNRFDAITVAFGIRNFEDLDKGLSEMCRVLKPGGHLVILELTTPDRFPMKQLFAIYSKVVIPLLGKLLSKDNSAYHYLPDTIKVFPQGEVMKGVISKTGFGEVHFRRLTFGICTLYTATK,not soluble
15,MEKKTANDVVTLARAQDRLTTLEYIEAIFEDFLEFHGDRYFADDLAVVGGVATLQGKPVTVVGIQKGRNLPENIERNFGSPNPEGYRKALRLMKQAEKFNRPVITFVNTAGAYCGIGAEERGEGEAIAQNLLEMSDLKVPIISVIIGEGGSGGALALAVADEVWMLEHTIYAVLSPEGFASILWKDGSRAKEAAELMKITATELKELAIVDKVIPEVMNGQPLEQAKINRMLQKAFISKLTELAKLDTETLLEKRYQRFRKY,not soluble
16,MNLMLCCTPLQVLIARKIIELHPNEQFFGVMFGGVWDKKRTLYASKLAEVCSDSMNIDTGKDLKGFDFLKLMRQLKNKITHKGFDKVFLANLNSLWLQTYLSHVSFKELYTFDDGSDNIFPHPNLLREPGTFKYKLIKAFIGDKYSVNKLFKKIKKHYTVYPNYKNIVSNIEPISLWDNQIDCEIDGEVSFFIGQPLLNTKEENISLIKKLKDQIPFDYYFPHPAEDYRVDGVNYVESELIFEDYVFKHLSNKKIIIYTFFSSVAFNLLSHPNVEIRFIRTSIPRWQFCYDSFPDLGLTIYKEI,not soluble
